Substitutions are numbered along the chain they refer to.
What was measured:
Mms21;Smc5 = biological target: T1, Mms21;Smc5 (Saccharomyces cerevisiae;Saccharomyces …, UniProt P38632;Q08204 1-267;1-1093, |); assay: EMSA; 5-40 nM E3, 5 nM DNA; less pronounced than STR; 35 mM Tris-HCl pH 7.5, 1 mM DTT, 100 ug/ml BSA, 5 mM MgCl2, 130 mM KCl, 30 C, 10 min; native PAGE in TAE (6.5% STR and E3, 7% Esc2); settings: protein: recombinant;recombinant; tags: ;; copies: 1;1; four-way Holliday junction of 4 strands
T1 sequence 1: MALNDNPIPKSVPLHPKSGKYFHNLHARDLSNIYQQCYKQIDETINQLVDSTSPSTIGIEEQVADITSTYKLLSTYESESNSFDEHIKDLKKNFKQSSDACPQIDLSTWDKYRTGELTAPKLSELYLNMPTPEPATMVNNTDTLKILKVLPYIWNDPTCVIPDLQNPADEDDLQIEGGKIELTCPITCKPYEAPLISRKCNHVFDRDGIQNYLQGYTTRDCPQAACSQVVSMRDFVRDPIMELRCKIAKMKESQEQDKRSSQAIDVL
T1 sequence 2: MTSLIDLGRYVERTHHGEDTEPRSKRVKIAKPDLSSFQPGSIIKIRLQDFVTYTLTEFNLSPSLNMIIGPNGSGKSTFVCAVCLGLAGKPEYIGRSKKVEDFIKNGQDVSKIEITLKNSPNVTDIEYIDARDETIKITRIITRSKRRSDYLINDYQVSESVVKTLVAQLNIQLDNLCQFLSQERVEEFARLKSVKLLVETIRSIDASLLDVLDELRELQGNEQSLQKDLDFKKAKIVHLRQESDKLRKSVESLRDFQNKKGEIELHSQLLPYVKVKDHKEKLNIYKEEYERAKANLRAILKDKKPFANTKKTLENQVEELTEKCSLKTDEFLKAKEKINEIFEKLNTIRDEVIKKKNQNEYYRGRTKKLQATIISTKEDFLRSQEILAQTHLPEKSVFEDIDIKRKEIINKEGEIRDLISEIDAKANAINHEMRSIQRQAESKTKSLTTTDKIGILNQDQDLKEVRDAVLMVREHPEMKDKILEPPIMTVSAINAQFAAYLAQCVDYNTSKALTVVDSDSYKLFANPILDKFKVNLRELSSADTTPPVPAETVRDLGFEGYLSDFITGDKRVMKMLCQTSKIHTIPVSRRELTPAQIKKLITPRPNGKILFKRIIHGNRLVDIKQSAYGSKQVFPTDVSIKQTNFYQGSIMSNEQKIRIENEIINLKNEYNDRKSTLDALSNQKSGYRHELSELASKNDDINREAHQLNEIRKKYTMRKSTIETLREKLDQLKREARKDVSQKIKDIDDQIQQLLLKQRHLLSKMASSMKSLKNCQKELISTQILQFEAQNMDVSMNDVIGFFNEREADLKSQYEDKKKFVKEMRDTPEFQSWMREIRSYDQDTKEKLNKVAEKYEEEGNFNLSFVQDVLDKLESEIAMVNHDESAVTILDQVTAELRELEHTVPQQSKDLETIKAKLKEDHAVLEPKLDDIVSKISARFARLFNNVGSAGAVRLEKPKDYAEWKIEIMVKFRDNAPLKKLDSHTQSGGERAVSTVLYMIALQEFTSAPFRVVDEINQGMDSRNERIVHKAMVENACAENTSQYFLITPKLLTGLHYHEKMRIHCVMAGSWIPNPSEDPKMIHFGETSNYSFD

Sgs1;Top3;Rmi1 [1] = biological target: T2, Sgs1;Top3;Rmi1 (Saccharomyces cerevisiae;Saccharomyces …, UniProt P35187;P13099;Q02685 1-1447;1-656;1-241, ||); assay: EMSA; 5-40 nM STR, 5 nM DNA; 35 mM Tris-HCl pH 7.5, 1 mM DTT, 100 ug/ml BSA, 5 mM MgCl2, 130 mM KCl, 30 C, 10 min; native PAGE in TAE (6.5% STR and E3, 7% Esc2); settings: protein: recombinant;recombinant;recombinant; tags: Flag;V5;GST; copies: 1;1;1; four-way Holliday junction of 4 strands
Esc2-5E = biological target: T3, Esc2-5E (Saccharomyces cerevisiae, UniProt Q06340 1-456, K179E;K182E;K183E;K197E;R198E); assay: EMSA; 5-80 nM protein, 5 nM DNA; 35 mM Tris-HCl pH 7.5, 1 mM DTT, 100 ug/ml BSA, 5 mM MgCl2, 130 mM KCl, 30 C, 10 min; native PAGE in TAE (6.5% STR and E3, 7% Esc2); settings: protein: recombinant
T3 sequence: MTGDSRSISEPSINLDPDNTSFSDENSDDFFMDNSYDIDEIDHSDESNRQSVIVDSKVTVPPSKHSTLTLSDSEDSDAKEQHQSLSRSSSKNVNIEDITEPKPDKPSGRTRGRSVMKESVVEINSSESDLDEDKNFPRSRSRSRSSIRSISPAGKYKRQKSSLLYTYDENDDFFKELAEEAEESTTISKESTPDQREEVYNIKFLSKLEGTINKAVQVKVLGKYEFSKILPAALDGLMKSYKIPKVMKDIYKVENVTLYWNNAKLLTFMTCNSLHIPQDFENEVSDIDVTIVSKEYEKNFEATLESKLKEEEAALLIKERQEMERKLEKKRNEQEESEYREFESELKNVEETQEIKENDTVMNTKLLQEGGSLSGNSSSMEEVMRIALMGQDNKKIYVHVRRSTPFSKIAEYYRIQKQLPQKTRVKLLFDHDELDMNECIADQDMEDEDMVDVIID

Esc2-MRΔ = biological target: T4, Esc2-MRΔ (Saccharomyces cerevisiae, UniProt Q06340 1-456, del154-198); assay: as above; settings: protein: recombinant
T4 sequence: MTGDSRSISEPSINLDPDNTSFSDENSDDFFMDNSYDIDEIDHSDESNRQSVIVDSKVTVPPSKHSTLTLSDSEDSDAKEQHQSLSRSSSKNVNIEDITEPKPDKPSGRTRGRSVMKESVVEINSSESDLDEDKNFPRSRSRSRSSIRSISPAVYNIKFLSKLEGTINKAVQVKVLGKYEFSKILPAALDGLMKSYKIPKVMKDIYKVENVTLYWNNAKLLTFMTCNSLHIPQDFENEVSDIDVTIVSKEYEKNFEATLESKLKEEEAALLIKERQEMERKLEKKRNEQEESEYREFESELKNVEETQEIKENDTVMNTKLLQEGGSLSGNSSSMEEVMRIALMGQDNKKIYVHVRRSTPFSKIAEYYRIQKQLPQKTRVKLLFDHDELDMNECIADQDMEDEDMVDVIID

Esc2 = biological target: T5, Esc2 (Saccharomyces cerevisiae, UniProt Q06340 1-456); assay: EMSA; 5-80 nM Esc2, 5 nM DNA; strong preference over dsDNA; 35 mM Tris-HCl pH 7.5, 1 mM DTT, 100 ug/ml BSA, 5 mM MgCl2, 130 mM KCl, 30 C, 10 min; native PAGE in TAE (6.5% STR and E3, 7% Esc2); settings: protein: recombinant; four-way Holliday junction of 4 strands
T5 sequence: T3 sequence with E179K, E182K, E183K, E197K, E198R

Sgs1;Top3;Rmi1 [2] = biological target: T2, Sgs1;Top3;Rmi1; assay: EMSA; 5-40 nM STR, 5 nM DNA; similar to HJ; 35 mM Tris-HCl pH 7.5, 1 mM DTT, 100 ug/ml BSA, 5 mM MgCl2, 130 mM KCl, 30 C, 10 min; native PAGE in TAE (6.5% STR and E3, 7% Esc2); settings: protein: recombinant;recombinant;recombinant; tags: Flag;V5;GST; copies: 1;1;1; blunt
GST-Esc2-MRΔ = biological target: T6, GST-Esc2-MRΔ (budding yeast, UniProt Q06340 1-456, truncating residues 154 to 198); assay: pull-down; GST or GST-tagged Esc2 or variants (2.2 μM) incubated with 3.6 μM Ubc9 in T buffer (25 mM Tris-Cl pH 7.4, 10% glycerol, 0.5 mM EDTA, 0.01% Igepal, 1 mM DTT) with 80 mM KCl, 30 min at 4 °C; captured on Glutathione Sepharose 4B; SDS-PAGE, Coomassie blue stain; settings: both partners purified
T6 construct: Esc2 of budding yeast lacking the midregion (MR), residues 154 to 198; The methods describe a pET24a construct; source: expressed and purified by published procedures
T6 sequence (looked up): T4 sequence

GST-Esc2-5E = biological target: T7, GST-Esc2-5E (budding yeast, UniProt Q06340 1-456, K179E | K182E | K183E | K197E | R198E); assay: as above; settings: both partners purified
T7 construct: Esc2 of budding yeast with five basic residues of the midregion (MR) replaced by glutamic acid; The methods describe a pET24a construct; source: expressed and purified by published procedures
T7 sequence (looked up): T3 sequence

[3] = four-way Holliday junction of 4 strands

T2 sequence (P35187 whole entry, chain 1 of 3): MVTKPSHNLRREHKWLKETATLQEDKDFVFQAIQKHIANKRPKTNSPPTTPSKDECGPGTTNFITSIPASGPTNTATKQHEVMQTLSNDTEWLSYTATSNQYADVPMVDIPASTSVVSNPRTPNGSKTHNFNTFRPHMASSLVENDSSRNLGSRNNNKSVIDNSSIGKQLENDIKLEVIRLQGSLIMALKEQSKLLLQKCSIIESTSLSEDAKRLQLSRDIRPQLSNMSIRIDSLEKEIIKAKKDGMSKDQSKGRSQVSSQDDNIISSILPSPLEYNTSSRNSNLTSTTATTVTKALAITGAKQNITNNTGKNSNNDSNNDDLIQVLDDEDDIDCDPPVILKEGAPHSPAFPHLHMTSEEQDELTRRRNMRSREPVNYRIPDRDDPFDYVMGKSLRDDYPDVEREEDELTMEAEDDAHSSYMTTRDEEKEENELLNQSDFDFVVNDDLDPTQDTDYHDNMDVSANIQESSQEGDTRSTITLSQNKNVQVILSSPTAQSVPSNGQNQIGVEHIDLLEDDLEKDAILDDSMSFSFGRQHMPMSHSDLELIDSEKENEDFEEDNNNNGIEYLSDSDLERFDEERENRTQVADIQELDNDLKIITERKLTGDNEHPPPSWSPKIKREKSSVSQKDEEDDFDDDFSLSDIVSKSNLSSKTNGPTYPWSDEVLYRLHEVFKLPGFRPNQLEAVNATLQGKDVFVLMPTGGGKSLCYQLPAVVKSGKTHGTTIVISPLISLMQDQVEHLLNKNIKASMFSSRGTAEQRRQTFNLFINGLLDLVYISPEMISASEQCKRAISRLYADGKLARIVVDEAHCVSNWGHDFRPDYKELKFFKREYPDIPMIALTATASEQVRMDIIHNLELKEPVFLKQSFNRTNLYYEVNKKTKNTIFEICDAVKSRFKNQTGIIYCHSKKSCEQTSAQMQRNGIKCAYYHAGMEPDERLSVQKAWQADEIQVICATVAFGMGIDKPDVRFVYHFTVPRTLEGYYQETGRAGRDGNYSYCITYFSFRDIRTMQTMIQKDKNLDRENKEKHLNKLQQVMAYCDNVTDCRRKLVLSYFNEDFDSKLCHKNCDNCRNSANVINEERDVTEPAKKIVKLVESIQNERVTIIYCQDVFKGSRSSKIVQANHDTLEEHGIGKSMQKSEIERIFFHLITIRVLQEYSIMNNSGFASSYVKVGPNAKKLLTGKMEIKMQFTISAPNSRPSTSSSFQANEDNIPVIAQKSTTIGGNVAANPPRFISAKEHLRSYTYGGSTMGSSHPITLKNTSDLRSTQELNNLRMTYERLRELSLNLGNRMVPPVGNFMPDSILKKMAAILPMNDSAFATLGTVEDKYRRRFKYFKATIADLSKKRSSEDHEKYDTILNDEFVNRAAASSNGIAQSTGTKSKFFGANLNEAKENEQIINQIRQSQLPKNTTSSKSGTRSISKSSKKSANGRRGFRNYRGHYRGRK
T2 sequence (P13099 whole entry, chain 2 of 3): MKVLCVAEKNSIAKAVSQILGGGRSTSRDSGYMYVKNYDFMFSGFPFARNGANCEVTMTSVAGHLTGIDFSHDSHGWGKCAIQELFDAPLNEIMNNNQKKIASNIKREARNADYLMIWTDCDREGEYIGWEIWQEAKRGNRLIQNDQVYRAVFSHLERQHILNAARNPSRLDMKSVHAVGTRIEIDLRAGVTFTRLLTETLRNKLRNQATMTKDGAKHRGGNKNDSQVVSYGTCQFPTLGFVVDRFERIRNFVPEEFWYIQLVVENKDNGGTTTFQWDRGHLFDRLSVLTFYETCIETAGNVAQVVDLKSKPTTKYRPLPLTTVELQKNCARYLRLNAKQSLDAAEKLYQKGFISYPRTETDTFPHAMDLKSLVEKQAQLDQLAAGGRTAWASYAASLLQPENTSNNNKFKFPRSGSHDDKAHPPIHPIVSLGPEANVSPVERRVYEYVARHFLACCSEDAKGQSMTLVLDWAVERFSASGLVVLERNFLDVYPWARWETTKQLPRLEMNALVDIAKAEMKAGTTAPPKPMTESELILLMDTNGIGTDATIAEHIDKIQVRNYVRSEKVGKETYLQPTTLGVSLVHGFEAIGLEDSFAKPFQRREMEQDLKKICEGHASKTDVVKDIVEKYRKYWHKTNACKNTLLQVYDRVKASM
T2 sequence (Q02685 whole entry, chain 3 of 3): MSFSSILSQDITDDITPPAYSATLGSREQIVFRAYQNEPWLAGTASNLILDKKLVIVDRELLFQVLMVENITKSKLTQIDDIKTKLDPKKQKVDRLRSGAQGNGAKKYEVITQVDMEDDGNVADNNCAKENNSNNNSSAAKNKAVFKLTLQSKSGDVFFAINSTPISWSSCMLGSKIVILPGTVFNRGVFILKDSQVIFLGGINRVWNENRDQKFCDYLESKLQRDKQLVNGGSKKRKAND

B1: HJ-DNA (H3/H5/H7/H8) (structured_DNA)
DNA 1: TTGATAAGAGGTCATTTGAATTCATGGCTTAGAGCTTAATTGCTGAATCTGGTGCTGGGATCCAACATGTTTTAAATATG
DNA 2: CATATTTAAAACATGTTGGATCCCAGCACCAGATTCAGCATACGTTACCGATCGTACGTTCGATGCTGGCTACTGCTAGC
DNA 3: GCTAGCAGTAGCCAGCATCGAACGTACGATCGGTAACGTAGTCGATTATCGAGATCAAGCTAGCATAGCCATAGCGCGAC
DNA 4: GTCGCGCTATGGCTATGCTAGCTTGATCTCGATAATCGACATTAAGCTCTAAGCCATGAATTCAAATGACCTCTTATCAA
B1: binds (Mms21;Smc5); binds (Sgs1;Top3;Rmi1 [1]); no binding (Esc2-5E; [3]). B1: no binding (Esc2-MRΔ; [3]); binds (Esc2).

B2: dsDNA (H3/H4) (dsDNA)
DNA 1: B1 DNA 1
DNA 2: CATATTTAAAACATGTTGGATCCCAGCACCAGATTCAGCAATTAAGCTCTAAGCCATGAATTCAAATGACCTCTTATCAA
B2: binds (Sgs1;Top3;Rmi1 [2]); no binding (Esc2-5E; blunt); no binding (Esc2-MRΔ; blunt).

B3: Ubc9 (SUMO E2) (enzyme, budding yeast, UniProt P50623 1-157, looked up)
chain: MSSLCLQRLQEERKKWRKDHPFGFYAKPVKKADGSMDLQKWEAGIPGKEGTNWAGGVYPITVEYPNEYPSKPPKVKFPAGFYHPNVYPSGTICLSILNEDQDWRPAITLKQIVLGVQDLLDSPNPNSPAQEPAWRSFSRNKAEYDKKVLLQAKQYSK
notes: Ubc9, the SUMO E2 enzyme of budding yeast; source: E. coli, purified (previously published procedures)
B3: binds (GST-Esc2-MRΔ); binds (GST-Esc2-5E).
